Results on four molecules are retold here after patent EP4806914A1.

The chains are these.
B1: fourth anti-AAV-scFv [4] (scFv)
scFv: QSLEESGGDLVKPGASLTLTCTASGFSFSSSAYMCWVRQAPGKGLEWIGCMHTISSVDTYYASWAKGRFAISKASSTTVTLQMTSLTAADTATYFCARDDRNGYGYPYSFDIWGPGTLVTVTSGGGGSGGGGSGGGGSELDLTQTAASVEAAVGGTITIKCQASQTISSYLAWYQQKPGQPPKLLIYRASTLASGVSSRFKGSGSGTEYTLTISDLECADAATYYCLTYYGNSHNFGGGTEVVIKGSAAAGGGSEQKLISEEDLGGGSHHHHHH
B2: first anti-AAV-scFv [1] (scFv)
scFv: QSLEESGGGLVKPGASLTLTCTASGFSFSSYGISWFRQAPGKGLEWIGTIYGGSSGSTYYASWAKGRFTISKTSSTTMTLQMASLTAADTATYFCARDRVGGNGYADLWGPGTLVTVTSGGGGSGGGGSGGGGSELVMTQTAASVEAAVGGTVTIKCQASQSISSYLAWYQQKPGQRPKLLIYRASTLASGVSSRFKGSGSGTEYTLTISDLECDDAATYYCQSHYDIRNYGVAFGGGTEVDIKRSAAAGGGSEQKLISEEDLGGGSHHHHHH
B3: third anti-AAV-scFv [3] (scFv)
scFv: QSVEESGGDLVKPGASLTLTCTASGIDFSSGYDMCWVRQAPGKGLEWIGCIYTGGDSAWYASWAKGRFTISKTSSTTVTLQMTSLTGADTATYFCANDLDSGTVSIWGPGTLVTVTSGGGGSGGGGSGGGGSELVLTQTAASVSEPVGGTVTIKCQASQSISSWLSWYQQKPGQPPKLLIYQASKLASGVPSRFKGSGSGTQFTLTISDVVCDDAATYYCAGWTSSTTDGTAFGGGTEVVITGSAAAGGGSEQKLISEEDLGGGSHHHHHH
B4: second anti-AAV-scFv [2] (scFv)
scFv: QSLEESGGDLVKPGASLTLTCTASGFSFSSNYWMFWVRQAPGKGLEWIAHIYGGSSGSTYYASWAKGRFTISKTSSTTVTLQMTSLTAADTATYFCATVDNGYSDLKLWGPGTLVTVTSGGGGSGGGGSGGGGSELVLTQTADSVEAGVGGTVTIKCQASQSIRNWLSWYQQKPGQPPKLLISRASTLASGVPSRFSGSGSGTEFTLTISDLECDDGATYYCQSSFYADSGEPAFGGGTEVDIKRSAAAGGGSEQKLISEEDLGGGSHHHHHH

One assay deals with AAV9 empty capsid (adeno-associated virus serotype 9 (AAV9)). The assay is described as follows: ELISA, 0.1 ug AAV9 coated on Maxisorp plate, scFv detected with HRP-labeled anti-His-Tag antibody, A450-A650; reference: blank (BSA).
As for B1, the IE/IB (ratio of ELISA absorbance for the empty capsid sample to that for the blank (BSA)) is 3.09.
The same measure, in the same setting: as for B2, the figure is 1.5; as for B3, 2.22.

The next assay concerns the target AAV9 full capsid (adeno-associated virus serotype 9 (AAV9)). The assay is described as follows: ELISA, 0.1 ug AAV9 coated on Maxisorp plate, scFv detected with HRP-labeled anti-His-Tag antibody, A450-A650; reference: AAV9 empty capsid sample. A general note: ELISA stands for enzyme-linked immunosorbent assay.
In the case of B1, the IF/IE (ratio of ELISA absorbance for the full capsid sample to that for the empty capsid sample) worked out at 7.17.
Same read-out and setting: as for B2, the figure is 6.54.
In the case of B4, the IF/IE (ratio of ELISA absorbance for the full capsid sample to that for the empty capsid sample) stood at 8.23.
The same measure, in the same setting: the same measure for B3: 6.11.
